We go through four molecules from patent US20200317768A1 (published 2020).

What all share (assay): SPR (Biacore); KD of SG1 divided by KD of the variant for this FcgR;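 also: relative to parent M103205H795-SG1 carrying the SG1 human heavy chain constant region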
Assay [1] has as its target T1, human FcγRIIIaV extracellular domain with C-terminal His-tag (human, UniProt P08637 17-208).
T1 construct: Expressed in FreeStyle 293 cells and purified; also called FcgRIIIaV; not shown: C-terminal His-tag

Assay [2] addresses T2, cynomolgus monkey FcγRIIa2 extracellular domain with C-terminal His-tag (cynomolgus monkey).
T2 construct: Expressed in FreeStyle 293 cells and purified; also called cyno FcγRIIa2; cynoFcgRIIa2; not shown: C-terminal His-tag
T2 chain: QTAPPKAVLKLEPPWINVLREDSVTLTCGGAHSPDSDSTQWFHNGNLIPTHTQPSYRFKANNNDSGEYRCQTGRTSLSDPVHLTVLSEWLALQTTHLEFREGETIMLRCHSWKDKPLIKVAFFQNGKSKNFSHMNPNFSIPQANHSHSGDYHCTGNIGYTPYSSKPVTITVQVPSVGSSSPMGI

Assay [3] addresses T3, human FcγRIIaR extracellular domain with C-terminal His-tag (human, UniProt P12318 34-217).
T3 construct: Expressed in FreeStyle 293 cells and purified; also called human FcγRIIa (type R); FcgRIIaR; not shown: C-terminal His-tag
T3 chain: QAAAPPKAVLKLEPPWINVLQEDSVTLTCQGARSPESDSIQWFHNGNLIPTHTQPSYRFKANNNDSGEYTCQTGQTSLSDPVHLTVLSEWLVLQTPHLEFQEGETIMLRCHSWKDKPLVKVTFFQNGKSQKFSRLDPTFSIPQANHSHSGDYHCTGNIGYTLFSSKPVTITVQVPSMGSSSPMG

For assay [4], the target named is T4, cynomolgus monkey FcγRIIIaS extracellular domain with C-terminal His-tag (cynomolgus monkey, UniProt Q8SPW2 21-206 at identity 1.00)).
T4 construct: Expressed in FreeStyle 293 cells and purified; also called cyno FcγRIIIaS; cynoFcγRIIIaS; not shown: C-terminal His-tag
T4 chain: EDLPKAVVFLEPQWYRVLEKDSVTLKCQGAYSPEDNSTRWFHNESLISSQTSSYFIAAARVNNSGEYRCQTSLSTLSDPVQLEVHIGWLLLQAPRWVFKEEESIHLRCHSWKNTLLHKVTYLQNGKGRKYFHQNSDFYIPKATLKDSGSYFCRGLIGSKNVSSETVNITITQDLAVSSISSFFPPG

Assay [5] deals with T5, human FcγRIIaH extracellular domain with C-terminal His-tag (human, UniProt P12318 34-217).
T5 construct: Expressed in FreeStyle 293 cells and purified; also called human FcγRIIa (type H); FcgRIIaH; not shown: C-terminal His-tag
T5 sequence: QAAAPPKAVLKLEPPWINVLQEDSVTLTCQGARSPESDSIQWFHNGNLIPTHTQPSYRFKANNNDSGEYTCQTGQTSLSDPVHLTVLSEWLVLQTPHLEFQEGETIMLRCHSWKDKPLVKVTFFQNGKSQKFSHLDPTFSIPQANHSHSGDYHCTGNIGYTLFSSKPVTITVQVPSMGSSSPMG

The target of assay [6] is T6, human FcγRIIb extracellular domain with C-terminal His-tag (human, UniProt P31994 43-217).
T6 construct: Expressed in FreeStyle 293 cells and purified; also called humanFcgRIIb; not shown: C-terminal His-tag
T6 sequence: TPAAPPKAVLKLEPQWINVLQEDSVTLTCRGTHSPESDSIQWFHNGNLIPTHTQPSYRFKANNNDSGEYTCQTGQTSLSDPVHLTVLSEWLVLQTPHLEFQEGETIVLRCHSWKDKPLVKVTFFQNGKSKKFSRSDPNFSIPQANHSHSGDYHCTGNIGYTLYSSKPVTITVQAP

For assay [7], the target named is T7, cynomolgus monkey FcγRIIa3 extracellular domain with C-terminal His-tag (cynomolgus monkey).
T7 construct: Expressed in FreeStyle 293 cells and purified; also called cyno FcγRIIa3; cynoFcgRIIa3; not shown: C-terminal His-tag
T7 chain: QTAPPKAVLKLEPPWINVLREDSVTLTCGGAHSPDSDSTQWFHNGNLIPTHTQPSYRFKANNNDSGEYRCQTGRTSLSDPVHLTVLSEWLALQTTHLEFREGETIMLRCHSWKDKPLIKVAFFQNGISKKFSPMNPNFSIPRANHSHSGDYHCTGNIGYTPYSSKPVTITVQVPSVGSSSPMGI

The target in assay [8] is T8, cynomolgus monkey FcγRIIa1 extracellular domain with C-terminal His-tag (cynomolgus monkey).
T8 construct: Expressed in FreeStyle 293 cells and purified; also called cyno FcγRIIa1; cynoFcgRIIa1; not shown: C-terminal His-tag
T8 chain: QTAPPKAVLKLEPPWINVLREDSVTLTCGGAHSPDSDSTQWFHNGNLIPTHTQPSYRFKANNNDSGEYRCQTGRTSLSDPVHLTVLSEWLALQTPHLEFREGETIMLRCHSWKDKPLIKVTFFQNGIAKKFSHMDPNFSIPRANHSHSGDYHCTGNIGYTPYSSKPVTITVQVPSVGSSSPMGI

T1 sequence (P08637 17-208 F176V): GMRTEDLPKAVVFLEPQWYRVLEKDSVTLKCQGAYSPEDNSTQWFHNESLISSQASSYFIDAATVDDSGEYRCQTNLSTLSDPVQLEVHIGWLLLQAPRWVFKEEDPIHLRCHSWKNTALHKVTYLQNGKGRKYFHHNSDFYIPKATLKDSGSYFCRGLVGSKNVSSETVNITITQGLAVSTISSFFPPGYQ

B1: M103205H795-MY175 / M103202L889-SK1 (antibody, human IgG1, kappa)
heavy: QVTLKESGPVLVKPTETLTLTCTVSGIDLSHDDISWVRQAPGKGLEWVGIISYAGSTYYASWAKGRLTISKDTSKNQVVLTMTNMDPVDTATYYCARGVPAYSHGGDLWGQGTLVTVSSASTKGPSVFPLAPSSKSTSGGTAALGCLVKDYFPEPVTVSWNSGALTSGVHTFPAVLQSSGLYSLSSVVTVPSSSLGTQTYICNVNHKPSNTKVDKKVEPKSCDKTHTCPPCPAPELLNGPSVFLFPPKPKDTLMISRTPEVTCVVVDVSEEDPEVKFNWYVDGVEVHNAKTKPREEQYNSTYRVVSVLTVLHQDWLNGKEYKCKVSNKALPAPIEKTISKAKGQPREPQVYTLPPSREEMTKNQVSLTCLVKGFYPSDIAVEWESNGQPENNYKTTPKVLDSDGSFFLYSKLTVDKSRWQQGNVFSCSVMHEALHNHYTQKSLSLSP
light: DIVMTQSPATLSLSPGERATLSCTSSQSVYHANWLSWFQQKPGQPPKLLIYWASTLAYGVPSRFSGSGSGTDFTLTISSLQPEDAATYYCAGGYGGGRYAFGQGTKVEIKRTVAAPSVFIFPPSDEQLKSGTASVVCLLNNFYPREAKVQWKVDNALQSGNSQESVTEQDSKDSTYSLSSTLTLSKADYEKHKVYACEVTHQGLSSPVTKSFNRGEC
notes: Position 396 variant derived from MY052, expressed with M103202L889-SK1 as light chain
For B1, the “KD fold (SG1 = 1)” value in assay [1] is 0.11 fold; in assay [2], 3.4 fold; in assay [3], 0.7 fold; in assay [4], 0.14 fold; in assay [5] it was 0.8 fold; in assay [6], 5.5 fold. The figures for the “KD fold (SG1 = 1)” value in assay [7] and in assay [8] were 2.5 fold and 2.3 fold, respectively.

B2: M103205H795-MY176 / M103202L889-SK1 (antibody, human IgG1, kappa)
heavy: QVTLKESGPVLVKPTETLTLTCTVSGIDLSHDDISWVRQAPGKGLEWVGIISYAGSTYYASWAKGRLTISKDTSKNQVVLTMTNMDPVDTATYYCARGVPAYSHGGDLWGQGTLVTVSSASTKGPSVFPLAPSSKSTSGGTAALGCLVKDYFPEPVTVSWNSGALTSGVHTFPAVLQSSGLYSLSSVVTVPSSSLGTQTYICNVNHKPSNTKVDKKVEPKSCDKTHTCPPCPAPELLNGPSVFLFPPKPKDTLMISRTPEVTCVVVDVSEEDPEVKFNWYVDGVEVHNAKTKPREEQYNSTYRVVSVLTVLHQDWLNGKEYKCKVSNKALPAPIEKTISKAKGQPREPQVYTLPPSREEMTKNQVSLTCLVKGFYPSDIAVEWESNGQPENNYKTTPLVLDSDGSFFLYSKLTVDKSRWQQGNVFSCSVMHEALHNHYTQKSLSLSP
light: DIVMTQSPATLSLSPGERATLSCTSSQSVYHANWLSWFQQKPGQPPKLLIYWASTLAYGVPSRFSGSGSGTDFTLTISSLQPEDAATYYCAGGYGGGRYAFGQGTKVEIKRTVAAPSVFIFPPSDEQLKSGTASVVCLLNNFYPREAKVQWKVDNALQSGNSQESVTEQDSKDSTYSLSSTLTLSKADYEKHKVYACEVTHQGLSSPVTKSFNRGEC
notes: as for B1
B2: the “KD fold (SG1 = 1)” value in assay [1] worked out at 0.13 fold; in assay [2], 3.6 fold; in assay [3], 0.8 fold; in assay [4], 0.16 fold; in assay [5], 1 fold; in assay [6], 6.6 fold. Also, the “KD fold (SG1 = 1)” value in assay [7] amounted to 2.8 fold; in assay [8], 2.5 fold.

B3: M103205H795-MY177 / M103202L889-SK1 (antibody, human IgG1, kappa)
heavy: QVTLKESGPVLVKPTETLTLTCTVSGIDLSHDDISWVRQAPGKGLEWVGIISYAGSTYYASWAKGRLTISKDTSKNQVVLTMTNMDPVDTATYYCARGVPAYSHGGDLWGQGTLVTVSSASTKGPSVFPLAPSSKSTSGGTAALGCLVKDYFPEPVTVSWNSGALTSGVHTFPAVLQSSGLYSLSSVVTVPSSSLGTQTYICNVNHKPSNTKVDKKVEPKSCDKTHTCPPCPAPELLNGPSVFLFPPKPKDTLMISRTPEVTCVVVDVSEEDPEVKFNWYVDGVEVHNAKTKPREEQYNSTYRVVSVLTVLHQDWLNGKEYKCKVSNKALPAPIEKTISKAKGQPREPQVYTLPPSREEMTKNQVSLTCLVKGFYPSDIAVEWESNGQPENNYKTTPNVLDSDGSFFLYSKLTVDKSRWQQGNVFSCSVMHEALHNHYTQKSLSLSP
light: DIVMTQSPATLSLSPGERATLSCTSSQSVYHANWLSWFQQKPGQPPKLLIYWASTLAYGVPSRFSGSGSGTDFTLTISSLQPEDAATYYCAGGYGGGRYAFGQGTKVEIKRTVAAPSVFIFPPSDEQLKSGTASVVCLLNNFYPREAKVQWKVDNALQSGNSQESVTEQDSKDSTYSLSSTLTLSKADYEKHKVYACEVTHQGLSSPVTKSFNRGEC
notes: as for B1
For the molecule B3, the “KD fold (SG1 = 1)” value in assay [1] is 0.13 fold; in assay [2], 2.8 fold; in assay [3], 0.6 fold; in assay [4], 0.12 fold; in assay [5] it was 0.7 fold; in assay [6], 4.2 fold. The “KD fold (SG1 = 1)” value in assay [7] came out at 2.1 fold; in assay [8], 1.7 fold.

B4: M103205H795-MY178 / M103202L889-SK1 (antibody, human IgG1, kappa)
heavy: QVTLKESGPVLVKPTETLTLTCTVSGIDLSHDDISWVRQAPGKGLEWVGIISYAGSTYYASWAKGRLTISKDTSKNQVVLTMTNMDPVDTATYYCARGVPAYSHGGDLWGQGTLVTVSSASTKGPSVFPLAPSSKSTSGGTAALGCLVKDYFPEPVTVSWNSGALTSGVHTFPAVLQSSGLYSLSSVVTVPSSSLGTQTYICNVNHKPSNTKVDKKVEPKSCDKTHTCPPCPAPELLNGPSVFLFPPKPKDTLMISRTPEVTCVVVDVSEEDPEVKFNWYVDGVEVHNAKTKPREEQYNSTYRVVSVLTVLHQDWLNGKEYKCKVSNKALPAPIEKTISKAKGQPREPQVYTLPPSREEMTKNQVSLTCLVKGFYPSDIAVEWESNGQPENNYKTTPQVLDSDGSFFLYSKLTVDKSRWQQGNVFSCSVMHEALHNHYTQKSLSLSP
light: DIVMTQSPATLSLSPGERATLSCTSSQSVYHANWLSWFQQKPGQPPKLLIYWASTLAYGVPSRFSGSGSGTDFTLTISSLQPEDAATYYCAGGYGGGRYAFGQGTKVEIKRTVAAPSVFIFPPSDEQLKSGTASVVCLLNNFYPREAKVQWKVDNALQSGNSQESVTEQDSKDSTYSLSSTLTLSKADYEKHKVYACEVTHQGLSSPVTKSFNRGEC
notes: as for B1
As to B4, the “KD fold (SG1 = 1)” value came to 0.18 fold in assay [1]; 2.4 fold in assay [2]; 0.5 fold in assay [3]; 0.12 fold in assay [4]; 0.5 fold in assay [5]; 3.5 fold in assay [6]. The “KD fold (SG1 = 1)” value is 2 fold in assay [7] and 1.6 fold in assay [8].
